Laboratory results as given in IntAct's records for PubMed 15522217.

B1: Crk-like protein (Homo sapiens), P46109 (parent)
chain: MSSARFDSSDRSAWYMGPVSRQEAQTRLQGQRHGMFLVRDSSTCPGDYVLSVSENSRVSHYIINSLPNRRFKIGDQEFDHLPALLEFYKIHYLDTTTLIEPAPRYPSPPMGSVSAPNLPTAEDNLEYVRTLYDFPGNDAEDLPFKKGEILVIIEKPEEQWWSARNKDGRVGMIPVPYVEKLVRSSPHGKHGNRNSNSYGIPEPAHAYAQPQTTTPLPAVSGSPGAAITPLPSTQNGPVFAKAIQKRVPCAYDKTALALEVGDIVKVTRMNINGQWEGEVNGRKGLFPFTHVKIFDPQNPDENE

Variants of: B1
Details: with insr_human INSR

| Variant | effect of a mutation on the interaction |
| --- | --- |
| H33R;S53P;K72R | decreasing interaction |

Variants of: B1
Details: with insr_human INSR
Remark: another data set of the same source

| Variant | effect of a mutation on the interaction |
| --- | --- |
| H33R;S53P;K72R | decreasing interaction |
